Experimental data: US20250154277A1 (CONCEPT TO MEDICINE BIOTECH, published 2025)
Like-named read-outs stand apart in the source and are kept apart here.

Experiments:
human 5T4-His protein [1] = target: T1, human 5T4-His protein (human, UniProt Q13641 32-355); assay: ELISA, coated 5T4-His
T1 construct: also called recombinant 5T4 protein (human 5T4-his tag); human 5T4 protein; not shown: His tag
T1 sequence (looked up): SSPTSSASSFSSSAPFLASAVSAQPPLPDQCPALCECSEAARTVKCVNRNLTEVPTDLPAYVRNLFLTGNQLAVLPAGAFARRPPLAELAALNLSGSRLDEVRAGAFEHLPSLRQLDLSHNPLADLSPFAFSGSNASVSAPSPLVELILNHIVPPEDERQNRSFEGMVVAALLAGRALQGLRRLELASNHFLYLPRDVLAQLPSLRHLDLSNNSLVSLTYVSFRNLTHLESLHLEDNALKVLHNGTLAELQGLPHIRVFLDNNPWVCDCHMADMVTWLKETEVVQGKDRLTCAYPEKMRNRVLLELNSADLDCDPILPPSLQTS
Protocol: To evaluate the binding activity of clones, the 286B4 chimeric antibody along with 286B4 humanized mAbs were subjected to ELISA test.
Briefly, microtiter plates were coated with human 5T4-His protein at 1 μg/ml in PBS, 100 μl/well at 4° C. overnight, then blocked with 150 μl/well of 1% BSA. 4-fold dilutions of tested antibodies starting from 20 nM were added to each well and incubated for 1 hour at 37° C. The plates were washed with PBS/Tween and then incubated with Goat Anti-Human IgG-HRP for 30 mins at 37° C. After washing, the plates were developed with TMB substrate and analyzed by spectrophotometer at OD 450 nm. As shown in FIG. 16 and Table 15, most of the humanized clones bound to human 5T4 with high potency.

human 5T4-His protein [2] = target: T1, human 5T4-His protein; assay: SPR Biacore, Protein A capture
Protocol: (§1) The binding of the 286B4 humanized antibodies to recombinant 5T4 protein (human 5T4-his tag) was tested with Biacore using a capture method. The mAbs were captured using Protein A chip. A serial dilution of human 5T4-his tag protein was injected over captured antibody for 3 mins at a flow rate of 30 μl/min. The antigen was allowed to dissociate for 280-800 s. All the experiments were carried out on a Biacore T200. Data analysis was carried out using the Biacore T200 evaluation software.

human 5T4-His protein [3] = target: T1, human 5T4-His protein; assay: ELISA, coated antigen
Protocol: (§2) ELISA testing was carried out to evaluate the binding of chimeric antibodies to human and cynomolgus, respectively. The antibody portion of naptumomab (NeoTX) that targets 5T4 (abbreviated as naptumomab in the present disclosure), was generated and used as a benchmark.
(§3) Briefly, microtiter plates were coated with human and cynomolgus 5T4 proteins at […] in PBS, 100 μl/well at 4° C. overnight, then blocked with 150 μl/well of 1% BSA. Serial dilutions of chimeric antibodies were added to each well and incubated for 1 hour at RT. The plates were washed with PBS/Tween and then incubate with mouse-anti-human IgG Fc antibody conjugated with Horse Radish Peroxidase (HRP) for 30 mins at RT. After washing, the plates were developed with TMB substrate and analyzed by spectrophotometer at OD 450 nm. All the 5T4 chimeric mAbs bound to human and cynomolgus 5T4 (FIG. 1-2 and Table 3).

cynomolgus 5T4 protein = target: T2, cynomolgus 5T4 protein (cynomolgus monkey, UniProt Q4R8Y9 35-355, limits assumed); assay: ELISA, coated antigen
T2 construct: Coated protein in ELISA; the screening step names a cyno 5T4-His protein; also called cyno 5T4; recombinant cyno 5T4-His protein
T2 sequence (looked up): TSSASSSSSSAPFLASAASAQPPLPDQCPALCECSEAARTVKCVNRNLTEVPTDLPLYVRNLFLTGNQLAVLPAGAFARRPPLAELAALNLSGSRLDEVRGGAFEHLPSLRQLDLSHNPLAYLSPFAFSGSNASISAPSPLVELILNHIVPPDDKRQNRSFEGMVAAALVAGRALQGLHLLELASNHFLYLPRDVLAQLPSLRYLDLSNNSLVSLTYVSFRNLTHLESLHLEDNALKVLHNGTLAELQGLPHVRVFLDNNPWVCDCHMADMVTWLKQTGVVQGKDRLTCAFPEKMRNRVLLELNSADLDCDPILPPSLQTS
Protocol: as §2, §3

human 5T4-His protein [4] = target: T1, human 5T4-His protein; assay: SPR Biacore, Protein A capture; remark: listed apart in the source
Protocol: as §1, with “the chimeric mAbs from these clones against” for “the 286B4 humanized antibodies to”, “for 2-3” for “for 3”, “for 360-1000” for “for 280-800”, “using” for “using the”

B1: Hu286B4-8 (antibody, V domains shown)
VH: EVQLQESGPGLVKPSDTLSLTCAVSGYSISNNYYWNWIRQPPGKGLEWIGYITYDGSNNYNPSLKNRITMSRDTSKNQFSLKLSSVTAVDTAVYYCARGGGQLRFDYWGQGTTVTVSS
VL: DIQMTQSPSSLSASVGDRVTITCKASQSVSNEVTWYQQKPGKAPKMLIYYASNRYTGVPDRFSGSGYGTDFTFTISSLQPEDIATYYCQQDYSSPWTFGGGTKVEIK
notes: humanized
EC50 (human 5T4-His protein [1]): 0.68 nM
Kd (human 5T4-His protein [2]): 1.08 nM
koff (human 5T4-His protein [2]): 0.000103 s⁻¹
kon (human 5T4-His protein [2]): 94600 M⁻¹ s⁻¹

B2: Hu286B4-3 (antibody, V domains shown)
VH: EVQLQESGPGLVKPSDTLSLTCAVSGYSISNNYYWNWIRQPPGKGLEWIGYITYDGSNNYNPSLKNRVTMSRDTSKNQFSLKLSSVTAVDTAVYYCARGGGQLRFDYWGQGTTVTVSS
VL: DIQMTQSPSSLSASVGDRVTITCKASQSVSNEVTWYQQKPGKAPKMLIYYASNRYTGVPDRFSGSGYGTDFTFTISSLQPEDIATYYCQQDYSSPWTFGGGTKVEIK
notes: humanized
EC50 (human 5T4-His protein [1]): 0.51 nM
Kd (human 5T4-His protein [2]): 1.14 nM
koff (human 5T4-His protein [2]): 0.000107 s⁻¹
kon (human 5T4-His protein [2]): 93400 M⁻¹ s⁻¹

B3: Hu286B4-5 (antibody, V domains shown)
VH: EVQLQESGPGLVKPSDTLSLTCAVSGYSISNNYYWNWIRQPPGKGLEWIGYITYDGSNNYNPSLKNRVTMSRDTSKNQFSLKLSSVTAVDTAVYYCARGGGQLRFDYWGQGTTVTVSS
VL: SIVMTQSPSSLSASVGDRVTITCKASQSVSNEVTWYQQKPGKSPKMLIYYASNRYTGVPDRFSGSGYGTDFTFTISSLQPEDIATYFCQQDYSSPWTFGGGTKVEIK
notes: humanized
EC50 (human 5T4-His protein [1]): 0.28 nM
Kd (human 5T4-His protein [2]): 1.2 nM
koff (human 5T4-His protein [2]): 0.000128 s⁻¹
kon (human 5T4-His protein [2]): 106000 M⁻¹ s⁻¹

B4: Hu286B4-13 (antibody, V domains shown)
VH: EVQLQESGPGLVKPSDTLSLTCAVSGYSISNNYYWNWIRQPPGKGLEWMGYITYDGSNNYNPSLKNRITVSRDTSKNQFSLKLSSVTAVDTAVYYCARGGGQLRFDYWGQGTTVTVSS
VL: DIQMTQSPSSLSASVGDRVTITCKASQSVSNEVTWYQQKPGKAPKMLIYYASNRYTGVPDRFSGSGYGTDFTFTISSLQPEDIATYYCQQDYSSPWTFGGGTKVEIK
notes: humanized
EC50 (human 5T4-His protein [1]): 0.57 nM
Kd (human 5T4-His protein [2]): 1.12 nM
koff (human 5T4-His protein [2]): 0.000107 s⁻¹
kon (human 5T4-His protein [2]): 95500 M⁻¹ s⁻¹

B5: Hu286B4-15 (antibody, V domains shown)
VH: EVQLQESGPGLVKPSDTLSLTCAVSGYSISNNYYWNWIRQPPGKGLEWMGYITYDGSNNYNPSLKNRITVSRDTSKNQFSLKLSSVTAVDTAVYYCARGGGQLRFDYWGQGTTVTVSS
VL: SIVMTQSPSSLSASVGDRVTITCKASQSVSNEVTWYQQKPGKSPKMLIYYASNRYTGVPDRFSGSGYGTDFTFTISSLQPEDIATYFCQQDYSSPWTFGGGTKVEIK
notes: humanized
EC50 (human 5T4-His protein [1]): 0.25 nM
Kd (human 5T4-His protein [2]): 1.04 nM
koff (human 5T4-His protein [2]): 0.000114 s⁻¹
kon (human 5T4-His protein [2]): 110000 M⁻¹ s⁻¹

B6: Hu286B4-17 (antibody, V domains shown)
VH: EVQLQESGPGLVKPSDTLSLTCAVSGYSITNNYYWNWIRQPPGKGLEWMGYITYDGSNNYNPSLKNRITVSRDTSKNQFSLKLSSVTAVDTAVYYCTRGGGQLRFDYWGQGTTVTVSS
VL: DIQMTQSPSSLSASVGDRVTITCKASQSVSNEVTWYQQKPGKAPKMLIYYASNRYTGVPDRFSGSGSGTDFTFTISSLQPEDIATYYCQQDYSSPWTFGGGTKVEIK
notes: humanized
EC50 (human 5T4-His protein [1]): 0.71 nM

B7: Hu286B4-18 (antibody, V domains shown)
VH: EVQLQESGPGLVKPSDTLSLTCAVSGYSITNNYYWNWIRQPPGKGLEWMGYITYDGSNNYNPSLKNRITVSRDTSKNQFSLKLSSVTAVDTAVYYCTRGGGQLRFDYWGQGTTVTVSS
VL: DIQMTQSPSSLSASVGDRVTITCKASQSVSNEVTWYQQKPGKAPKMLIYYASNRYTGVPDRFSGSGYGTDFTFTISSLQPEDIATYYCQQDYSSPWTFGGGTKVEIK
notes: humanized
EC50 (human 5T4-His protein [1]): 0.42 nM
Kd (human 5T4-His protein [2]): 1.18 nM
koff (human 5T4-His protein [2]): 0.000133 s⁻¹
kon (human 5T4-His protein [2]): 113000 M⁻¹ s⁻¹

B8: Hu286B4-19 (antibody, V domains shown)
VH: EVQLQESGPGLVKPSDTLSLTCAVSGYSITNNYYWNWIRQPPGKGLEWMGYITYDGSNNYNPSLKNRITVSRDTSKNQFSLKLSSVTAVDTAVYYCTRGGGQLRFDYWGQGTTVTVSS
VL: DIQMTQSPSSLSASVGDRVTITCKASQSVSNEVTWYQQKPGKSPKMLIYYASNRYTGVPDRFSGSGYGTDFTFTISSLQPEDIATYFCQQDYSSPWTFGGGTKVEIK
notes: humanized
EC50 (human 5T4-His protein [1]): 0.27 nM

B9: Hu286B4-20 (antibody, V domains shown)
VH: EVQLQESGPGLVKPSDTLSLTCAVSGYSITNNYYWNWIRQPPGKGLEWMGYITYDGSNNYNPSLKNRITVSRDTSKNQFSLKLSSVTAVDTAVYYCTRGGGQLRFDYWGQGTTVTVSS
VL: SIVMTQSPSSLSASVGDRVTITCKASQSVSNEVTWYQQKPGKSPKMLIYYASNRYTGVPDRFSGSGYGTDFTFTISSLQPEDIATYFCQQDYSSPWTFGGGTKVEIK
notes: humanized
EC50 (human 5T4-His protein [1]): 0.42 nM

B10: 425G1 chimeric antibody (antibody, V domains shown)
VH: EVQLQQSGAELVKPGASVKLSCTASGFNIKDTYMHWVKQRPEQGLEWIGRIDPANGHTIFASKFQGKATITADTSSNTAYMQLSSLTSGDTAVYYCGLFTMVVVPWYFDVWGTGTTVTVSS
VL: DIVMTQSHKFMSTSVGDRVSITCKASQDVSTAVAWYQQKPGQSPKLLIYWASTRHTGVPDRFTGSGSGTDYTLTISSVQAEDLALYYCQQHYSSPLTFGAGTKLELK
notes: chimeric mAb
EC50 (human 5T4-His protein [3]): 0.29 nM
EC50 (cynomolgus 5T4 protein): 0.23 nM
Kd (human 5T4-His protein [4]): 1.64 nM
koff (human 5T4-His protein [4]): 0.000215 s⁻¹
kon (human 5T4-His protein [4]): 131000 M⁻¹ s⁻¹

B11: 449H9 chimeric antibody (antibody, V domains shown)
VH: QVQLQQSGAELVRPGSSVRISCKASGYAFSNYWMNWVKQRPGQGLEWIGQIYPGDGDTNYNGKFKNKATLTTDKSSSTAYMQLSSLTSEDSAVYFCARHYDYPYYYAMDYWGQGTSVTVSS
VL: DIQMTQSPSSLSASLGERVSLTCRASQDIGIALTWLQQEPDGTIKRLIYATSSLDSGVPKRFSGSRSGSDYTLTISSLESEDFVDYYCLQYIISPYTFGGGTKLEIK
notes: chimeric mAb
EC50 (human 5T4-His protein [3]): 0.37 nM
EC50 (cynomolgus 5T4 protein): 0.1 nM
Kd (human 5T4-His protein [4]): 0.381 nM
koff (human 5T4-His protein [4]): 0.000115 s⁻¹
kon (human 5T4-His protein [4]): 301000 M⁻¹ s⁻¹

B12: 367B8 chimeric antibody (antibody, V domains shown)
VH: QVQLQQPGTELVKPGASVKLSCKASGYTFTSYWMHWVKQRPEQGLEWIGNINPSNGNTNYNENFKSQATLTVDKSSSTAYMQLSSLTSEDSAVYYCARGGWDFDYWGQGTTLTVSS
VL: QVVLTQSPAIMSASPGEKVTMTCSASSSVRYIHWYQQRSGTSPKRWIYDTSKLTSGVPVRFSGSGSGTSYSLTISSMEAEDAATYYCQQWTSKPPWTFGGGTKLEIR
notes: chimeric mAb
EC50 (human 5T4-His protein [3]): 0.86 nM
EC50 (cynomolgus 5T4 protein): 0.13 nM
Kd (human 5T4-His protein [4]): 0.285 nM
koff (human 5T4-His protein [4]): 0.000167 s⁻¹
kon (human 5T4-His protein [4]): 588000 M⁻¹ s⁻¹

B13: 353H11 chimeric antibody (antibody, V domains shown)
VH: QVQLQQPGTELVKPGASVKLSCKASDYTFTSYWMHWVKQRPEQGLEWIGNINPSNGNTNYNEKFKNKATLTVDKSSSTAYMQLSSLTFEDSAVYYCARGGWDFDYWGQGTTLTVSS
VL: QVVLTQSPAIMSASPGEKVTMTCSASSSVRYMHWYQQRSGTSPKRWIYDTSKLTSGVPARFSGSGSGTSYSLTISSMEAEDAATYYCQLWTSKPPWTFGGGTKLEIR
notes: chimeric mAb
EC50 (human 5T4-His protein [3]): 0.73 nM
EC50 (cynomolgus 5T4 protein): 0.13 nM
Kd (human 5T4-His protein [4]): 0.24 nM
koff (human 5T4-His protein [4]): 9.63e-05 s⁻¹
kon (human 5T4-His protein [4]): 401000 M⁻¹ s⁻¹
